Laboratory results as given in PMC9384988, “The TPR domain of PgaA is a multifunctional scaffold that binds PNAG and modulates PgaB-dependent polymer processing” (PLoS Pathogens, 2022).

Experiments:
PgaA-220-367 = target: T1, PgaA-220-367 (Escherichia coli, UniProt P69434); test: Tryptophan quenching, wild-type PgaA-220-367; assay type: binding, E. coli; conditions: substrate concentration 4.5 mM
T1 construct: His6 (thrombin cleavable, pET28) (N); made in house; host or cells: E. coli BL21 CodonPlus (DE3)
T1 sequence (P69434 220-367): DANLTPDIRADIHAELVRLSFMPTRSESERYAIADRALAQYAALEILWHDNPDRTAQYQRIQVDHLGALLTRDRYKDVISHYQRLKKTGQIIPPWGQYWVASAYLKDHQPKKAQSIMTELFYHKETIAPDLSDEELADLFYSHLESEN
Method: Fluorescence measurements were carried out at 20°C in a quartz cuvette (type no. 115F-QS; Hellma Analytics) using a PTI QuantaMaster 80 steady-state fluorometer (Photon Technology International), with a 4-nm bandwidth for both excitation and emission and a speed of 2 nm/s. Fluorescence spectra were collected between 300 nm and 400 nm with an excitation wavelength of 280 nm and a peak emission wavelength of 334 nm. All samples were prepared in triplicates 10 minutes ahead of the collection in a solution containing 1 μM protein, 20 mM Tris buffer pH 8.0, 150 mM sodium chloride and 1 mM concentrations of dPNAG oligomers. Data measured for each sample was corrected for ligand fluorescence and inner filter effect. […] To obtain an approximate binding affinity the dPNAG oligomer concentration was varied between 0–10 mM.

His-PgaA (PgaA-32-807) = target: T2, His-PgaA (PgaA-32-807) (E. coli K-12, UniProt P69434 32-807); test: co-purification (NiNTA, gel filtration) with SDS-PAGE; His-PgaA and PgaB constructs co-expressed in BL21, extracted with 1% DDM, purified by NiNTA and gel filtration (20 mM Tris pH 8, 150 mM NaCl, 0.1% DDM); Coomassie gel of the purified complexes; conditions: partners not purified
T2 construct: also called His-PgaA-32-807; full-length PgaA; source: E. coli BL21: co-expressed with PgaB, in DDM extract of the lysate pellet (pull-down); expressed alone or with PgaB and purified (NiNTA, gel filtration, DDM); not shown: His6, N-terminal, kept
T2 sequence (looked up): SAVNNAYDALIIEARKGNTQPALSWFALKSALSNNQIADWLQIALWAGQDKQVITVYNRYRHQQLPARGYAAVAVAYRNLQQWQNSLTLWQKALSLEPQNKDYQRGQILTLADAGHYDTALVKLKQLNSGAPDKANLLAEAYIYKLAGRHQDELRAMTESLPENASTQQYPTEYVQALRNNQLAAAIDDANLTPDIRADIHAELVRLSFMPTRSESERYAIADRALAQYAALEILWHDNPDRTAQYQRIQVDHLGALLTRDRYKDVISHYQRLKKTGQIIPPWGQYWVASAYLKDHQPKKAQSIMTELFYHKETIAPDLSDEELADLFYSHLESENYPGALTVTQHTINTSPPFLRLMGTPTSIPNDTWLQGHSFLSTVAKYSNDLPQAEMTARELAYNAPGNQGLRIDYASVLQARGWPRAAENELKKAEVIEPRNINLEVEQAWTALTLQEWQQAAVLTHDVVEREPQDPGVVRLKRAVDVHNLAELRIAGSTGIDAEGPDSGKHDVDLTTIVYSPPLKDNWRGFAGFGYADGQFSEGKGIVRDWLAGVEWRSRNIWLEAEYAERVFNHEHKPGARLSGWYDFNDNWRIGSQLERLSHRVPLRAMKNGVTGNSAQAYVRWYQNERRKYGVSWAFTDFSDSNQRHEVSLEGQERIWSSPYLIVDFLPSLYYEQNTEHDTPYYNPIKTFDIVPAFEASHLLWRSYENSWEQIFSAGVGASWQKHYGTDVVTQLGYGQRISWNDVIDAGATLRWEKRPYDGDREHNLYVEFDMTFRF

[1] = system: Staphylococcus epidermidis strain SE801 biofilms; test: Crystal violet-based biofilm disruption assay (glycoside hydrolase activity); assay type: cell-based; conditions: S. epidermidis SE801 biofilm, 2 h, lower EC50 = higher glycoside hydrolase activity
Method: To determine whether the modulation of enzyme activity might be a common theme for the TPR domain across synthase-dependent systems, we assayed the deacetylase and glycoside hydrolase activities of PgaB in the presence and absence of PgaA. As we used co-expression to obtain the complexes, a SDS PAGE gel of the purified solutions of PgaA, PgaB and PgaA/B complexes was analyzed to ensure that equal quantities of the protein/protein complex were used (Fig 2A). Consistent with previous published studies, PgaA and PgaB appear to form a 1:1 complex. The deacetylase activity was assessed using a fluorescamine-based assay with fully acetylated PNAG hexamers as the substrate. As fluorescamine detects the presence of primary amines, which are generated during the deacetylation of the PNAG oligosaccharide, this assay provides a direct readout of the deacetylation activity of PgaB. […] After a further 2 h, the reaction was quenched, plates washes and the amount of adherent biofilm remaining quantified using crystal violet staining. […]
Cultures of S. epidermidis clinical isolate SE801 were grown overnight at 37°C with shaking at 200 rpm in LB broth without antibiotics. […] The remaining dye was solubilized with 100 μl of 95% (v/v) ethanol for 10 min with rotation, after which time the absorbance was measured at 595 nm.

[2] = Fluorescamine de-acetylation assay; assay type: biochemical; conditions: 30 μM enzyme and 30 mM PNAG hexamer; fluorescamine readout
Method: To determine whether the modulation of enzyme activity might be a common theme for the TPR domain across synthase-dependent systems, we assayed the deacetylase and glycoside hydrolase activities of PgaB in the presence and absence of PgaA. As we used co-expression to obtain the complexes, a SDS PAGE gel of the purified solutions of PgaA, PgaB and PgaA/B complexes was analyzed to ensure that equal quantities of the protein/protein complex were used (Fig 2A). Consistent with previous published studies, PgaA and PgaB appear to form a 1:1 complex. The deacetylase activity was assessed using a fluorescamine-based assay with fully acetylated PNAG hexamers as the substrate. As fluorescamine detects the presence of primary amines, which are generated during the deacetylation of the PNAG oligosaccharide, this assay provides a direct readout of the deacetylation activity of PgaB. To assess the glycoside hydrolase activity, we used a biofilm disruption assay, which has been used previously to characterize PgaB’s glycosidase activity. In this assay, biofilms of Staphylococcus epidermidis strain SE801 were grown in 96 well plates for 24 h, at which point PgaB was added. After a further 2 h, the reaction was quenched, plates washes and the amount of adherent biofilm remaining quantified using crystal violet staining. […]

**Q.** For chitin, which “quenching of the signal at 334nm” value (PgaA-220-367) is on record?
**A.** 9%

B1: PgaB (PgaB-1-672) (enzyme, E. coli, UniProt P75906 21-672, looked up)
chain: CISQSRTSFIPPQDRESLLAEQPWPHNGFVAISWHNVEDEAADQRFMSVRTSALREQFAWLRENGYQPVSIAQIREAHRGGKPLPEKAVVLTFDDGYQSFYTRVFPILQAFQWPAVWAPVGSWVDTPADKQVKFGDELVDREYFATWQQVREVARSRLVELASHTWNSHYGIQANATGSLLPVYVNRAYFTDHARYETAAEYRERIRLDAVKMTEYLRTKVEVNPHVFVWPYGEANGIAIEELKKLGYDMFFTLESGLANASQLDSIPRVLIANNPSLKEFAQQIITVQEKSPQRIMHIDLDYVYDENLQQMDRNIDVLIQRVKDMQISTVYLQAFADPDGDGLVKEVWFPNRLLPMKADIFSRVAWQLRTRSGVNIYAWMPVLSWDLDPTLTRVKYLPTGEKKAQIHPEQYHRLSPFDDRVRAQVGMLYEDLAGHAAFDGILFHDDALLSDYEDASAPAITAYQQAGFSGSLSEIRQNPEQFKQWARFKSRALTDFTLELSARVKAIRGPHIKTARNIFALPVIQPESEAWFAQNYADFLKSYDWTAIMAMPYLEGVAEKSADQWLIQLTNQIKNIPQAKDKSILELQAQNWQKNGQHQAISSQQLAHWMSLLQLNGVKNYGYYPDNFLHNQPEIDLIRPEFSTAWYPKND
modifications: C21 lipidated (residues 1-20 are a signal sequence that is cleaved during periplasmic targeting)
notes: signal peptide in the construct; Untagged; also called full-length PgaB; untagged PgaB; source: E. coli BL21: co-expressed with His-PgaA constructs, in DDM extract or co-purified; also separately expressed, cell pellet mixed with the PgaA pellet before lysis
**Q.** Which “stoichiometry N” value (His-PgaA (PgaA-32-807)) does the source give for B1 here?
**A.** 1

B2: PgaB: soluble E. coli PgaB residues 22–672, de-N-acetylase and glycoside hydrolase (protein)
chain: B1 chain
modifications: C21 lipidated (residues 1-20 are a signal sequence that is cleaved during periplasmic targeting)
notes: soluble E. coli PgaB residues 22–672, de-N-acetylase and glycoside hydrolase
**Q.** What does the source list for B2?
**A.** EC50 [1]: 302 ± 82.3 nM; concentration of GlcN produced [2]: 988.6 ± 104.7 µM
